Source: paper PMC3553976

Experiments:
U2AF65 RRM123 = U2AF65 RRM123 (Homo sapiens, UniProt P26368 147-475); experiment: EMSA
U2AF65 RRM123;SF1 1-260 [1] = molecular target: T1, U2AF65 RRM123;SF1 1-260 (Homo sapiens;Homo sapiens, UniProt P26368;Q15637 147-475;1-260, |); experiment: EMSA
[2] = molecular target: U2AF65 RRM123;SF1 2-320 delta-linker (Homo sapiens;Homo sapiens?, UniProt P26368;Q15637 147-475;2-320, |del75-90); experiment: EMSA
U2AF65 RRM123;SF1 2-320 = U2AF65 RRM123;SF1 2-320 (Homo sapiens;Homo sapiens?, UniProt P26368;Q15637 147-475;2-320, |); experiment: EMSA
[3] = molecular target: U2AF65 RRM123;SF1 2-320 delta-alpha1 (Homo sapiens;Homo sapiens?, UniProt P26368;Q15637 147-475;2-320, |del35-68); experiment: EMSA
U2AF65 RRM123;SF1 1-260 [4] = molecular target: T1, U2AF65 RRM123;SF1 1-260; experiment: SAXS

Measured: binding result

U2AF65 RRM123, sequence (P26368 147-475, one chain of several): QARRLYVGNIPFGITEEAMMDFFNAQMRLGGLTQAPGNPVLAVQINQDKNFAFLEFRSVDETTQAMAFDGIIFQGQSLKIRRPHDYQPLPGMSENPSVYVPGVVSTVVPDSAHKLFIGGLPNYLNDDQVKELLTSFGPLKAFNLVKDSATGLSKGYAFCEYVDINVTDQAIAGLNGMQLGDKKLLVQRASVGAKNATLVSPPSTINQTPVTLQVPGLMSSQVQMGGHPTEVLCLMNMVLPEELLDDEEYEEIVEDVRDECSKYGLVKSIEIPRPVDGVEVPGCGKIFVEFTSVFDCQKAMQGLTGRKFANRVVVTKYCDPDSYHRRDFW

B1: 3'-splice site RNA (AdML intron 1, consensus BPS) (ssRNA)
RNA: GGUCAUACUAACCCUGUCCCUUUUUUUUCCACAGC
not listed: U2AF65 RRM123;SF1 1-260 [4]
binds: all other assays above

B2: 20-mer BPS-Py tract RNA (ssRNA)
RNA: UAUACUAACAAUUUUUUUUU
binds: U2AF65 RRM123;SF1 1-260 [4]
